According to US20150031620:

Experiments:
[1] = system: mutant rTMD23NA (thrombomodulin domains 2 and 3 with N364A and N391A)
[2] = system: recombinant human TMD23 (wild-type thrombomodulin domains 2 and 3)
recombinant human TMD23 (wild-type thrombomodulin domains 2 and 3), sequence (chain, as listed by the source): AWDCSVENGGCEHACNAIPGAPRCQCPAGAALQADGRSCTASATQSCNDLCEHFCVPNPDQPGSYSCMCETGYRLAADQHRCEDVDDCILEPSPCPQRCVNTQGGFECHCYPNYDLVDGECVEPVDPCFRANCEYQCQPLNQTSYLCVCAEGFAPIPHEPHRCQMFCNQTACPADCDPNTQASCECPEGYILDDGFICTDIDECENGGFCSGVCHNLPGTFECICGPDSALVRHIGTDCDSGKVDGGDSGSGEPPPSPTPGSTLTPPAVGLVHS

mutant rTMD23NA (thrombomodulin domains 2 and 3 with N364A and N391A), sequence (chain, as listed by the source N364A N391A): as the sequence (chain, as listed by the source) above, with N141A, N168A counted along it

thrombin
thrombin-dependent activation of protein C (hydrolysis of Chromozym PCa, absorbance at 405 nm) [1]: The mutant rTMD23NA lost its cofactor activity in catalyzing thrombin-dependent activation of Protein C | thrombin-dependent activation of protein C (hydrolysis of Chromozym PCa, absorbance at 405 nm) [2]: only recombinant TMD23 gave rise to thrombin-dependent protein C activation
